Reference: patent publication US9879094B2, “Nucleic acid molecules encoding for BACE1 antibodies” (Genentech, Inc., priority 2010, dated 2018)
“And” between values parts separate entries of the source, which are not always exact repeats. Equal entries are not always repeated.

Key:
[1] = Antibody concentration in brain of hAPP transgenic mice; type: in vivo, mouse
Experimental: Briefly, 5-month old human APP-expressing mice were treated with 30 mg/kg or 100 mg/kg YW412.8.31 antibody or vehicle by intra-peritoneal injection every four days for a total of three doses (i.e., at days 1, 5, and 9). Animals were euthanized two hours post the final dose. Serum, plasma, and brains were harvested and processed. Plasma, cortex and hippocampus were analyzed for levels of soluble Aβ1-40 and Aβ1-42 using an Amyloid beta (Aβ) ELISA test kit per manufacture's instructions (The Genetics Company). Pharmacokinetic analysis was performed on serum and brain homogenates.
Similar experiments were also performed in which YW412.8.31 anti-BACE1 antibody was delivered systemically or directly into hAPP transgenic mice brains by continuous ICV infusion. For ICV delivery, antibody was delivered continuously for 7 days via an Alzet osmotic minipump (model 2001) implanted unilaterally. The amount of YW412.8.31 antibody delivered was 0.041 mg/day (low dose) or 0.41 mg/day (high dose); 0.33 mg/day Control IgG was delivered to the control group. At euthanasia, plasma, cortex, and hippocampus were harvested and analyzed for levels of soluble Aβ1-40 and Aβ1-42 by ELISA (The Genetics Company) following manufacturer's instructions.
Total anti-BACE1 antibody concentrations in mouse serum and brain samples were measured as follows. Antibody concentrations in mouse serum and brain samples were measured using an enzyme-linked immunosorbent assay (ELISA). NUNC 384 well Maxisorp immunoplates (Neptune, N.J.) were coated with F(ab′)2 fragment of donkey anti-human IgG, Fc fragment specific polyclonal antibody (Jackson ImmunoResearch, West Grove, Pa.) overnight at 4° C. Plates were blocked with phosphate-buffered saline (PBS) containing 0.5% bovine serum albumin (BSA) for 1 hour at room temperature the next day. Each antibody (Control IgG and anti-BACE1) was used as a standard to quantify the respective antibody concentrations. After washing plates with PBS containing 0.05% Tween 20 using a microplate washer (Bio-Tek Instruments, Inc., Winooski, Vt.), standards and samples diluted in PBS containing 0.5% BSA, 0.35 M NaCl, 0.25% CHAPS, 5 mM EDTA, 0.05% Tween 20 and 15 ppm Proclin were incubated on plates for 2 hours at room temperature with mild agitation. Bound antibody was detected with horseradish peroxidase conjugated F(ab′)2 goat anti-human IgG, Fc specific polyclonal antibody (Jackson ImmunoResearch). Finally, plates were developed using the substrate 3,3′,5,5′-tetramethyl benzidine (TMB) (KPL, Inc., Gaithersburg, Md.). Absorbance was measured at a wavelength of 450 nm with a reference of 630 nm on a Multiskan Ascent reader (Thermo Scientific, Hudson, N.H.). Concentrations were determined from the standard curve using a four-parameter non-linear regression program.

[2] = tested on: Aβ1-40 in Cynomolgus monkeys; test: Cynomolgus monkeys, single IV dose, Aβ1-40 in plasma and CSF; type: in vivo, Cynomolgus monkey; conditions: 30 mg/kg IV
Experimental: Cynomolgus monkeys were dosed with control IgG or YW412.8.31 anti-BACE1 antibody (30 mg/kg) by IV delivery. Plasma and CSF were sampled up to 7 days prior to dosing to set mean baseline Aβ1-40 levels in each in individual animal, and then at various times after dosing. Total anti-BACE1 or control antibody concentrations in monkey serum and CSF samples were measured using monkey-adsorbed goat anti-human IgG polyclonal antibody (Bethyl, Montgomery, Tex.) as both coat and detection (FIG. 20). Free anti-BACE1 antibody concentrations in monkeys were determined using BACE1 ECD as coat and the monkey-adsorbed goat anti-human IgG antibody (Bethyl) for detection.
Aβ1-40 levels in plasma and CSF from Cynomolgus monkeys tested was also determined. Briefly, the concentrations of total cyno Aβ1-40 in plasma were determined using MSD MA6000 Human (6E10) Abeta Kit (Cat#K111BVE-2, Meso Scale Diagnostics) according to the Manufacturer's instructions. The capture antibody, specific for the C terminus of Aβ1-40, was pre-coated on the plates, and Sulfo-Tag anti-Aβ monoclonal antibody 6E10 was used for detection. The assay had lower limit of quantification values of 49.4 pg/ml in plasma. The concentrations of total cyno Aβ1-40 in CSF were determined using a sandwich ELISA. […]

mouse cortical neurons = test: Antibody internalization in primary neurons; type: cell-based
Experimental: BACE1 is known to be expressed intracellularly, particularly in the Golgi. To ascertain whether or not YW412.8.31 interacts with BACE1 in an intracellular environment, internalization studies were performed. One set of neuronal cultures was prepared from E13.5 dorsal root ganglia (DRG) explants, and a second set of neuronal cultures was prepared from E16.5 dissociated cortical neurons from BACE1+/+ or BACE1−/− mice and cultured for 24 or 72 hours, respectively, at 37° C. Media containing 0.5 μM YW412.8.31 anti-BACE1 antibody was added to the cultures for time periods varying from 30 minutes to 2 hours, and incubated at either 4° C. or 37° C. Unbound antibody was washed out thoroughly with PBS after treatment. […] Bound antibody was detected using a secondary Alexa 568-conjugated anti-Human IgG1 antibody (Molecular Probes) according to the manufacturer's directions.
Additionally, mouse cortical neurons were cultured in the presence of YW412.8.31 anti-BACE1 antibody or a control IgG for 10 minutes or 3 hours, after which the antibody was detected by immunostaining Neuronal cultures were prepared from E15.5 dissociated cortical neurons, and cultured for 14 DIV. […] Bound antibody was detected using an Alexa 568-conjugated anti-Human IgG1 secondary antibody (Molecular Probes). […]

B1: YW412.8.31: affinity matured form of YW412.8 anti-BACE1 antibody (antibody, V domains shown)
VH: EVQLVESGGGLVQPGGSLRLSCAASGFTFLGYGIHWVRQAPGKGLEWVGWISPAGGSTDYADSVKGRFTISADTSKNTAYLQMNSLRAEDTAVYYCARGPFSPWVMDYWGQGTLVTVSS
VL: DIQMTQSPSSLSASVGDRVTITCRASQDVSTAVAWYQQKPGKAPKLLIYSASFLYSGVPSRFSGSGSGTDFTLTISSLQPEDFATYYCQQFPTYLPTFGQGTKVEIK
ANTIBODY CONCENTRATION IN BRAIN ([1]; systemic delivery 30 mg/kg): 0.7 μG/G
antibody concentration in brain ([1]; systemic delivery 30 mg/kg): 4.8 ± 3.6 nM and 4.8 nM
ANTIBODY CONCENTRATION IN BRAIN ([1]; systemic delivery 100 mg/kg): 2.1 μG/G
antibody concentration in brain ([1]; systemic delivery 100 mg/kg): 14.0 ± 9.3 nM and 14 nM
reduction of CSF Aβ1-40 ([2]; 1 and 3 days following dosing): up to 50%
reduction of plasma Aβ1-40 from baseline ([2]; sustained over 7 days): ~50%
localization of antibody signal (mouse cortical neurons; 1 μM, 10 minutes to 3 hours, 37° C.): localized intracellularly
co-localization with vesicular compartment markers (mouse cortical neurons; TfR, VAMP4, LAMP1 co-staining): co-localized with markers for early endosomes and TGN, but not lysosomes
